The values below come from article PMC4787769.

The target of data set [1] is kLANA_(1008–1150 (K1109E)) (KSHV). Nature of the data set: SEC.
The target is the same in data set [2]. Nature of the data set: SAXS.
In data set [3] the target is KSHV LANA DNA binding domain, kLANA_(1019–1150) (KSHV). The data set can be described thus: crystal structure.
The target is the same in data set [4]. The data set can be described thus: SEC; gel filtration in the presence of 1 M NaCl. For orientation: Size exclusion chromatography separates by hydrodynamic size, large species first.
The target in data set [5] is MHV-68 LANA DNA binding domain, mLANA_(124–314) (MHV-68). Nature of the data set: SEC.
For data set [6] the target is unchanged. The data set can be described thus: SAXS.
The target is the same in data set [7]. Nature of the data set: SAXS. This is another data set of the same source.
For data set [8], the target named is KSHV LANA DNA binding domain, kLANA_(1008–1150) (KSHV). Nature of the data set: SEC.
For data set [9] the target is unchanged. Nature of the data set: SAXS.
Data set [10] addresses mLANA DBD (Murine gammaherpesvirus 68 (MHV-68)) (UniProt O41974). Nature of the data set: ITC. (Isothermal titration calorimetry measures the heat released or taken up as one component is titrated into another.)
For data set [11], the target named is kLANA_(k1109E, A1121E) (KSHV). The data set can be described thus: SEC.
For data set [12], the target named is kLANA_(k1109E, A1121E) (KSHV). The data set can be described thus: SEC. The source holds these as a separate data set.

What is called stoichiometry N is the number of molecules, sites or subunits per partner or assembly. Broadly, the Kd is the free concentration of one partner at which half of the binding sites on the other are occupied at equilibrium, for simple one-to-one binding.

“And” between values parts separate entries of the source, which are not always exact repeats. Equal entries are not always repeated. Where two headings read alike, the source gives them in different places.

In the case of “kLANA_(1008–1150 (K1109E)) (domain or fragment)”, in data set [1], the stoichiometry N is 2 and 4. In [2], the percent of species present as bent tetramer amounted to 20%; the percent of species present as dimer was less than 80%; the stoichiometry N was 2 and 4.
Turning to “KSHV LANA DNA binding domain, kLANA_(1019–1150) (domain or fragment)”, the stoichiometry N in [3] is 2 and 4; in data set [4], 2.
“MHV-68 LANA DNA binding domain, mLANA_(124–314) (domain or fragment)”: the stoichiometry N is 2 and 4 in data set [5]; 4 in data set [6]; 8 in data set [7].
As for “KSHV LANA DNA binding domain, kLANA_(1008–1150) (domain or fragment)”, in [8], the stoichiometry N is 2 and 4. In data set [9], the percent of the mixture present as octamer with two kLBS1–2 DNA was 74%; the stoichiometry N is 8 and 4.
Turning to kLBS1-2, in data set [10], the Kd was determined as 71.7 nM.
Turning to “kLANA_(k1109E, A1121E) (domain or fragment)”, the stoichiometry N in data set [11] was determined as 2; in data set [12] it was 4.
